Assay: soluble on expression in E. coli; label from the status in PepcDB or PDB records

Sequence | soluble on expression in E. coli
MSLREGYLPAVITVSGKDRPGVTAAFFRVLSANQVQVLDVEQSMFRGFLNLAAFVGIAPERVETVTTGLTDTLKVHGQSVVVELQETVQSSRPRSSHVVVVLGDPVDALDISRIGQTLADYDANIDTIRGISDYPVTGLELKVTVPDVSPGGGEAMRKALAALTSELNVDIAIERSGLLRRSKRLVCFDCDSTLITGEVIEMLAAHAGKEAEVAAVTERAMRGELDFEESLRERVKALAGLDASVIDEVAAAIELTPGARTTIRTLNRMGYQTAVVSGGFIQVLEGLAEELELDYVRANTLEIVDGKLTGNVTGKIVDRAAKAEFLREFAADSGLKMYQTVAVGDGANDIDMLSAAGLGVAFNAKPALKEIADTSVNHPFLDEVLHIMGISRDEGHHHHHH | soluble
GSHMGKDCIMHGYMSKMGNPFLTQWQRRYFYLFPNRLEWRGEGEAPQSLLTMEEIQSVEETQIKERKCLLLKIRGGKQFILQCDSDPELVQWKKELRDAYREAQQLVQRVPKMKNKPRS | soluble
MGSDKIHHHHHHMLVQGFEEDLAFLGWIALTLGSNPLVPYVPTRPELIPKILELLDLKEDDVFYDLGCGDGRVVIEAVKKTRVKKAVCVETRDDLVKEARKKAEEEGVSDRIEFINNDFFKTPLKDATAVYMYLLTSVNESLKPKLARELRDGTRIVTLDFPIPGWKPVKVETATTGWQRSLYLYVKGVSDRA | not soluble
MGSDKIHHHHHHMPHYDVVDTSNNNGIMTVANWRSMKKYGVKAMIAKLSEGTYFTDQTAKPSIRNAITAGLHVNGYHFARFTTETGAKAEAQMAARSALKAGLGKSSVIVLDFEATNSGWNQNSKIVKAWINEVHRMGYPKTDVYTMGSWINSVPLNNSGRGGWVANYPYNPSGFKLYTGYNGWQWTSSMHFPGCYGGFDVSQMYSNYYYGTTTHVAKPKKAIYYRYNPKMIYARTPINRYKDVAFKHKVDNFPAGTVFAIAKVINYGKITRFQLANGYYITSNQTNVNRLYYSVDGGVKRVKSVRGTHRYKDKALKHVVDWQPAETEFDVAKIVKYGDTTRIQLANGLFISGNKKINKFVK | not soluble
MSLKLLIVENDRDTAAALTTSLVAQQFTVDTASDSRSALELAEATEYDLIVLDVMLPDENGIRLCRQLRTQNQQEPILLLTRKVNPADRIAGFEAGADDYITKPYELSELLARIRALLRRGSTVLTKVLCWGQLQLDPNNCEVMCQGKGLHLTPKEYKLLELFLRHPRRIFDRRTLLDRICSIDECPGEEAITTQIRGLRRKLQMAGLNSDPIETLYGLGYRLKSEGHHHHHH | not soluble
MKWILLPILFVTLAVSGTALAQPSPTETVKKTVDDVIKIVSDKELKKPQNEKRRRQEIKRAIGTVFDSAEMAQRAMARHWRDRNAAEKKEFVDLFENLLENSYAGKIESYNQEKVVYLKEAIDGDYAEVRSKIVTARRDEYSLDYRLMLKGGKWVVYDIVIEGVSLVSNYRTQFNKIITNQGYAELVKKLRSKNKEISMPLEHHHHHH | soluble
MQAKEEKEFTLQERRCLIVWVYTLKPLKQLRRYGLIHYVSRKMKYVVIYMNEENIESNMEKINQLHFVRSVDKSYRPDVEMNFAEKIGTKAAYQEQEDDGYVVEELSTEIRLAENV | not soluble
MGSDKIHHHHHHMKVLLYLEGKTVLEKSGIGRALQHQMEALDMAGIPYTTDLLGDYDVIHINTYGPRSWLLLHAAKRSGKKVIMHGHSTKEDFQNSFIGSNTLAPFVGKYLASMYQKADFVITPSEYSKKLIQSYGVTTPIIAVSNGIDLDKYKKDERKEAIFREHFKIEEGQPVVVCAGLYFRRKGIEDFVKVAEKMPHVRFIWLGSINKWLIPSYIRKIVEGDHPANVEFPGYFKGAVFQGAMSGADAFFFPSYEETEGIVVLEALASHQHVVLRDIPVYDGWVDENVAELGHTVDDFVDSIQKILDKQVDKREAGYQVAVSRSIDNVSHQLVDAYRQVLEM | not soluble
MSAPINKVLIADDIEQECVDILKQNGIEVTVKTKQTKDELLVTLPQHDAVIVRSATKITAELLAASAGKLKLVGRAGTGVDNIDVPAASANKILVMNTPQANSRSAAELTCTLILSLSRHVPQAAASMKAGKWARKDFMGEEVYGRTLAVLGLGRIGSEVAVRLQAFGMKVIGFDPMVTKEQAEAKNIELLSLEQIWPQADYITVHVPLIKQTENLINKETLAKCKKGVRIINVARGGIVNEVDLVESLNAGHAKGAAFDVFEQEPPTFRELIDHPLVIATPHLGASTIDAQLRVASEIADNIVQYNKGTMLGVLNAREVLN | not soluble
MGSDKIHHHHHHMPSETRLPNFIRTLIFALSFIFLNACSEQTAQTVTLQGETMGTTYTVKYLSNNRDKLPSPAEIQKRIDDALKEVNRQMSTYQPDSEISRFNQHTAGKPLRISSDFAHVTAEAVHLNRLTHGALDVTVGPLVNLWGFGPDKSVTREPSPEQIKQAASYTGIDKIILKQGKDYASLSKTHPKAYLDLSSIAKGFGVDKVAGELEKYGIQNYLVEIGGELHGKGKNARGEPWRIGIEQPNIVQGGNTQIIVPLNNRSLATSGDYRIFHVDKSGKRLSHIINPNNKRPISHNLASISVVADSAMTADGLSTGLFVLGETEALKLAEREKLAVFLIVRDKGGYRTAMSSEFEKLLR | not soluble
MRVLIVKTSSMGDVLHTLPALTDAQQAIPEIKFDWVVEEGFAQIPSWHAAVERVIPVAIRRWRKAWFSAPIKAERKAFREALQAENYDAVIDAQGLVKSAALVTRLAHGVKHGMDWQTAREPLASLFYNRKHHIAKQQHAVERTRELFAKSLGYSKPQTQGDYAIAQHFLTNLPTDAGEYAVFLHATTRDDKHWPEEHWRELIGLLADSGIRIKLPWGAPHEEERAKRLAEGFAYVEVLPKMSLEGVARVLAGAKFVVSVDTGLSHLTAALDRPNITVYGPTDPGLIGGYGENQVECRSTSMSLADLPAQTVFQNLNLEIITNKLTSEIR | not soluble
MSLQENPYQLVKDVEGIGFGKADELGSRMGLSGNHPERVKAAILYTLETTCLSEGHTYIETEQLIIDTQSLLNQSAREGQRITEMDAANAIIALGENKDIVIEDGRCYFPSLFYAEQNVAKRVKHIASQTEYENQFPESEFLLALGELEERMDVQYAPSQKEAIQKALSSPMLLLTGGPGTGKTTVIRGIVELYGELHGVSLDPSAYKKDEAFPIVLAAPTGRAAKRMSESTGLPAVTIHRLLGWNGAEGFTHTEDQPIEGKLLIIDEASMLDIWLANHLFKAIPDHIQIIIVGDEDQLPSVGPGQVLRDLLASQVIPTVRLTDIYRQAEGSSIVELAHQMKNGLLPNNLTAPTKDRSFIRCGGSQIKEVVEKVVANALKKGYTAKDIQVLAPMYRGKAGINELNVMLQDILNPPKEKRRELKFGDVVYRTGDKILQLVNQPENNVFNGDIGEITSIFYAKENTEKEDMAVVSFDGNEMTFTKKDFNQFTHAYCCSIHKSQGSEFPIVVLPVVKGYYRMLRRNLLYTAITRAKKFLILCGEEEALEWGVKNNDATVRQTSLKNRLSVQVEEGHHHHHH | soluble
MSLRKSTLSGEVRVRNHQLGIYEKALAKDLSWPERLVLAKSCGFDFVEMSVDETDERLSRLDWSAAQRTSLVAAMIETGVGIPSMCLSAHRRFPFGSRDEAVRERAREIMSKAIRLARDLGIRTIQLAGYDVYYEDHDEGTRQRFAEGLAWAVEQAAASQVMLAVEIMDTAFMNSISKWKKWDEMLASPWFTVYPDVGNLSAWGNDVPAELKLGIDRIAAIHLKDTQPVTGQSPGQFRDVPFGEGCVDFVGIFKTLHKLNYRGSFLIEMWTEKAKEPVLEIIQARRWIEARMQEAGFICEGGSHHHHHH | soluble
EEVTVVAFAKQKKESVIGSIQTVKPAELKTPSSNLTTSLAGRMAGVIAYQRSGEPGKDNANFFIRGVTTFGYKKDPLILLDNVEVSSDDLARVQPDDIASFSVLKDATSTALYGARGANGVILVTTKEGKEG | not soluble
MGHHHHHHSHMKVVLSLGGSVLSNESEKIREFAKTIESVAQQNQVFVVVGGGKLAREYIKRARELGASETFCDYIGIAATRLNAMLLISAIPSAAKKVPVDFMEAEELSKLYRVVVMGGTFPGHTTDATAALLAEFIKADVFINATNVDGVYSADPKSDTSAVKYDRLSPQQLVEIVSRSSAKAGTNVVIDLLAAKIIERSKIKTYVIL | soluble
MSLSELIFYTNPMSRGRIARWMLEEVGIPYKTEILGFETSMKSPAYRLINPMAKVPAIKHGDTIVTEAAAICAYLADAFPGANLAPTPKARGLYYRWMFFAAGPLEMAASMKAMGFEVPKEKLRMAGCGSYADVMNTLERAVSENRFIAGDLFTAADVYVGAHVGWGLHFGTIEKRPAFTDYMAHLTDRPAFKRAAQLDEEAAKELQAAGEGHHHHHH | soluble

Reference: the DeepSol protein solubility set
